According to PMC6000670 (2018):

Target: Hsp90 (Saccharomyces cerevisiae, UniProt P02829)
Assay: ITC

Chain of Hsp90 (P02829 whole entry): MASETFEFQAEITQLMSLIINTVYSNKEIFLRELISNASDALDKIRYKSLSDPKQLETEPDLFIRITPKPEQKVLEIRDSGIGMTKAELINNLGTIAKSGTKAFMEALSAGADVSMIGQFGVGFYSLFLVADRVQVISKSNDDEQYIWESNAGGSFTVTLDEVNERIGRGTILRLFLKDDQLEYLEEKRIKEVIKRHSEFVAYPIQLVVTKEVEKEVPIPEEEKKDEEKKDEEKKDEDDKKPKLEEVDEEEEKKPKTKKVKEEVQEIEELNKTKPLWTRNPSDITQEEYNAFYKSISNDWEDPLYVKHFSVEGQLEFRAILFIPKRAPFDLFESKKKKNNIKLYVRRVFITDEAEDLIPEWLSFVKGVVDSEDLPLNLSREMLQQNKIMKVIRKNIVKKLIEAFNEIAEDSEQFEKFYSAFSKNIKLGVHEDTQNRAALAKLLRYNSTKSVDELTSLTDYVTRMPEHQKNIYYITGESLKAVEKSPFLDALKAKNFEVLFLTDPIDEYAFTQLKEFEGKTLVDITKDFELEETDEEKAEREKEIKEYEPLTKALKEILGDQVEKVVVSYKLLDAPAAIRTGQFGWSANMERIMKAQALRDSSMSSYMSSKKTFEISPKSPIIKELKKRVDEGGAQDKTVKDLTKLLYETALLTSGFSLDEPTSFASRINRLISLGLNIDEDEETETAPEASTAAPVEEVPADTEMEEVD

Kd: 320 nM
B1: Sti1 (protein)
chain: MSLTADEYKQQGNAAFTAKDYDKAIELFTKAIEVSETPNHVLYSNRSACYTSLKKFSDALNDANECVKINPSWSKGYNRLGAAHLGLGDLDEAESNYKKALELDASNKAAKEGLDQVHRTQQARQAQPDLGLTQLFADPNLIENLKKNPKTSEMMKDPQLVAKLIGYKQNPQAIGQDLFTDPRLMTIMATLMGVDLNMDDINQSNSMPKEPETSKSTEQKKDAEPQSDSTTSKENSSKAPQKEESKESEPMEVDEDDSKIEADKEKAEGNKFYKARQFDEAIEHYNKAWELHKDITYLNNRAAAEYEKGEYETAISTLNDAVEQGREMRADYKVISKSFARIGNAYHKLGDLKKTIEYYQKSLTEHRTADILTKLRNAEKELKKAEAEAYVNPEKAEEARLEGKEYFTKSDWPNAVKAYTEMIKRAPEDARGYSNRAAALAKLMSFPEAIADCNKAIEKDPNFVRAYIRKATAQIAVKEYASALETLDAARTKDAEVNNGSSAREIDQLYYKASQQRFQPGTSNETPEETYQRAMKDPEVAAIMQDPVMQSILQQAQQNPAALQEHMKNPEVFKKIQTLIAAGIIRTGR
modifications: Hsp90 in complex with LA1011 (1 mM)
